Test results from the supplement of paper PMC9170038.

Test system: MS2 coat protein
Assay: apparent KD of MS2 coat protein; designed switch direction (-1 OFF switch, 1 ON switch): -1; higher = weaker reporter binding
Method in brief: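 On Illumina chips, designed RNA switches with common flanks were made by stalled E. coli RNA polymerase. Titrations with SNAP-549-labelled MS2 coat protein, doubling from 0.7 or 1.5 nM to 3 µM, were done with no input, with 200 uM small-molecule ligand, or with an oligonucleotide input. Apparent KD is the median per design over clusters, from curve fits of normalised cluster fluorescence.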

[1] = Eterna round: R95, input ligand: microRNA oligo, concentration not stated
[2] = input ligand: microRNA oligo, concentration not stated
[3] = Eterna round: R95, input ligand: FMN 200 uM
[4] = Eterna round: R95, input ligand: none

| Sequence | apparent KD of MS2 coat protein (input ligand: FMN 200 uM) [nM] | apparent KD of MS2 coat protein (input ligand: none) [nM] | apparent KD of MS2 coat protein [1] [nM] | apparent KD of MS2 coat protein [2] [nM] | apparent KD of MS2 coat protein [3] [nM] | apparent KD of MS2 coat protein [4] [nM] |
| --- | --- | --- | --- | --- | --- | --- |
| GGUUGGCGAGGAUAUACAUGAGGAUCACCCAUGUGGUCCUAAAAUAAAAUAGACCUUUGUAGAAGGCGCGGGUC [salish99_ex3_r4_040] (Eterna round: R97, puzzle: Exclusion 3) | 139 | 215 | – | – | – | – |
| AAUAACAGAGGAUAUACUAUUUUAUGUGUUUAUUGUUUUAAACAUGAGGAUCACCCAUGUAGAAGGCUGAGUAA [JMF 31] (puzzle: Exclusion 2) | – | – | 37.4 | – | – | – |
| CACCGUUACCGAGGAUAUCGUACAUGAGGAUCACCCAUGUAAUAAAUGAGAAUUUCGGAUGUAUGCGAGAAGGCGGGAAUCGGC [Ostracism 35 - Jieux - Exclusion NG 2] (Eterna round: R96, puzzle: Exclusion NG 2) | – | – | – | 24.8 | – | – |
| CUGAGGUAGCGGUCCUAUGACAUGAGGAUCACCCAUGUACCUUGCUUUGAGCUAUUUGCUCGUCUUAUGAUUCUCGG [Mat - Sensor v3 - turn-off var 1 - JL Mod - D40] (Eterna round: R96, puzzle: Sensor v3, turn-off variant 1) | 788 | 758 | – | 655 | – | – |
| UGAUCUAGCGGAGGAUAUACAUGAGGAUCACCCAUGUAUAGGCUAUCUGGUGACAGGUGGAACAUGUAGAAGGCCGCUAGAUCU [JL ENG2 3.80] (Eterna round: R96, puzzle: Exclusion NG 2) | 78.1 | 17.9 | – | 12.7 | – | – |
| CUAAUGUAUCAGGAUAUGAUUAUAUGUGUUGGAUCAGAAGGGAUAACAUGAGGAUCACCCAUGUUGUGGAGUGA [JR_Ex6_Sub036] (Eterna round: R97, puzzle: Exclusion 6) | 202 | 234 | – | – | – | – |
| GGCCUGUGAGGAUAUUAGUAGUAGAUGAAAUAAACUAUUACUGAGAAGGCACAUGAGGAUCACCCAUGUUGGCC [Mat - Exclusion 4 - Eli Mod - D36] (Eterna round: R97, puzzle: Exclusion 4) | 16.6 | 16.1 | – | – | – | – |
| UAGCGACCAUACAUGAGGAUCACCCAUGUGAAUGCCCACCGCGAGGAUAUCGAGUCCACUCGGGCCGAGAAGGCGCGACCUCAA [Eternabot solution 43] (Eterna round: R96, puzzle: Exclusion NG 3) | 34.8 | 35.5 | – | 16.1 | – | – |
| UUAAAUCAUGUAGGAUAUGCGUGGCGAAGCUAUGCAGAAGGACAUGAGGAUCACCCAUGUUCUUGCGUCUGCGUACAGAUGCAA [JL ENG1 1.09] (Eterna round: R96, puzzle: Exclusion NG 1) | 118 | 37.2 | – | 26 | – | – |
| UAGUGGCAAGGAUAUACAGUGGAGAGGAUUGCAAGAGGUGGACAUGAGGAUCACCCAUGUAGAAGGUGCAGAGA [JR_Exclu2_Sub023] (puzzle: Exclusion 2) | – | – | 203 | – | – | – |
| UACAUGAGGAUCACCCAUGUUUUGUCGUGUAUGGUAUUUAUCUAGGAUAUCAAUUUAUUUAUUUAUGAGAAGGAGAAUAUUAAU [JMF's solution 5] (Eterna round: R96, puzzle: Exclusion NG 3) | 36.3 | 41.2 | – | 28.1 | – | – |
| UCGUGGUAACUCAGCAGUUUCCUGAGCGGAGGAACUUUGACAUGAGGAUCACCCAUGUUGCUUUUUGCUCAUCUUAA [JR_SV3TOV2_Sub042] (puzzle: Sensor v3, turn-off variant 2) | – | – | 40.3 | – | 20.9 | 16.1 |
| UAUAUAUAGUAAGGAUAUGUAUUUAUUUGAUAAACAGAAGGUACUGACAUGAGGAUCACCCAUGUUUUAGUGUGGGCAUGUAGA [JMF's solution 20] (Eterna round: R96, puzzle: Exclusion NG 1) | – | – | – | 69.9 | – | – |
| ACAUGAGGAUCACCCAUGUGACAAGAAUGGCUGAUACAGAGAUAGGAUAUAGGUGCAUAUCUAACCUAGAAGGGUCAUGACUGG [Deportation 75 - Jieux - Exclusion NG 3] (Eterna round: R96, puzzle: Exclusion NG 3) | 53.4 | 37 | – | 34.3 | – | – |
| CUUCGACAUGAGGAUCACCCAUGUCAGGAUAUUGUGUAUCGGGUUUUUUACGGAAAGGCAAGAAGGGAUGUGUG [LRO-Excl1-07] (puzzle: Exclusion 1) | – | – | 25.4 | – | – | – |
| UCAUGUUUAGAGGAUAUGAUUACUCUAGAGUGAUCAGAAGGCUAGACAUGAGGAUCACCCAUGUCACAACAUGA [Exclusion 6 - B - 16:c] (puzzle: Exclusion 6) | – | – | 44.5 | – | 73.6 | 128 |
| AAAUACAAGUAAAGAUCCUACAUGAGGAUCACCCAUGUGCUCGUUUUAUAAAGUACUAUCACGAAAGUGAUAGUACA [Sensor 3, v1 - 23] (puzzle: Sensor v3, turn-off variant 1) | – | – | 4.81 | – | 900 | 435 |

| Sequence | apparent KD of MS2 coat protein (input ligand: FMN 200 uM) [nM] | apparent KD of MS2 coat protein (input ligand: none) [nM] | apparent KD of MS2 coat protein [1] [nM] | apparent KD of MS2 coat protein [2] [nM] | apparent KD of MS2 coat protein [3] [nM] | apparent KD of MS2 coat protein [4] [nM] |
| --- | --- | --- | --- | --- | --- | --- |
| AACCAGAUGAAACACAGGCACAUGAGGAUCACCCAUGUCUUAGAGCAUUCGGGUAAUCGGCUCGUUUUAAUUAGAAC [Eternabot (L1) Solution 22] (Eterna round: R97, puzzle: Sensor, turn-off variant 1) | 279 | 344 | – | – | – | – |
| ACAACAAGCUUUUUGAACGUAGAACAUGAAGCUCUAGUCACAUGAGGAUCACCCAUGUCAGCCAGUUAGAUAGGUGA [JR_SV3TOV2_Sub065] (puzzle: Sensor v3, turn-off variant 2) | – | – | 49 | – | 64.5 | 51.2 |
| GGUGCGUAUGUGAGGAUAUGCUGGUCCUUGGAUCGGCAGAAGGCACAUGAGGAUCACCCAUGUGGUGUCGUACA [salish99_Bmod_ex4_087] (puzzle: Brourd's mod of Exclusion 4) | – | – | 232 | – | – | – |
| ACAAGCUUGUAAUGAUUGAACAUGAGGAUCACCCAUGUAAAUGGAAGAACCAAUUUGAUAAGAUAAACUCGUCUUAU [JR_STOV1_Sub005] (Eterna round: R97, puzzle: Sensor, turn-off variant 1) | 56.9 | 55.7 | – | – | – | – |
| AAUACAAGCUAUUGAUCCCACAUGAGGAUCACCCAUGUAGCUGGCCGUGAGACCAGCUUUACGAUAGCUCGUCUUAU [Sensor-V1 #50] (Eterna round: R97, puzzle: Sensor, turn-off variant 1) | 261 | 263 | – | – | – | – |
| GUAAACGAAGAGGAUAUUUGAUAUCAAAGCUUCAAAGAAGGCUUCACAUGAGGAUCACCCAUGUGAUCUUCAAA [Mat - Exclusion 6 - JL Mod - D18] (Eterna round: R97, puzzle: Exclusion 6) | 191 | 23.3 | – | – | – | – |
| AUUGUGUUAGGAUAUGCUUAUGGUGGGUAGUCCAGUAUGAAGUAGAAGGGACAUGAGGAUCACCCAUGUGCUGA [EX4 #36] (Eterna round: R97, puzzle: Exclusion 4) | 136 | 164 | – | – | – | – |
| GAAAAGGUAGGAUAUACGAAAAAAAAGGGUAGAAAUAAAACACAUGAGGAUCACCCAUGUAGAAGGACCAAAAG [salish99_ex2_r3_076] (puzzle: Exclusion 2) | – | – | 20.9 | – | 74.5 | 15.5 |
| AGUACUAACACGAAUGUGUUAGUACAAUAAGCUUGUGAAACAUGAGGAUCACCCAUGUCCUCAUAAGCUCGUCUUAU [salish99_TOv2_r3_032] (puzzle: Sensor v3, turn-off variant 2) | – | – | 779 | – | 16.3 | 15.5 |
| CAGUACUGAGGAUAUACAUGAGGAUCACCCAUGUGUUCCAGCUAGGAAACUAGCUAAAGUAGAAGGCAGUACUG [salish99_ex3_r3_092x] (puzzle: Exclusion 3) | – | – | 24.1 | – | 459 | 25 |
| AGGAGUAGUAAGGAUAUAGCGGACUAGUCGUCGUUAGAAGGUACUACAUGAGGAUCACCCAUGUUGACCUGAGC [EX6 B.14] (Eterna round: R97, puzzle: Exclusion 6) | 46.5 | 19.6 | – | – | – | – |
| AGCUGUGGCCGAGGAUAUCACGAACCAUGGAAAACCAUGGAAACUCUACAUGAGGAUCACCCAUGUGAGAAGGCGGUCUCAGCA [Eli eng2 - 022] (Eterna round: R96, puzzle: Exclusion NG 2) | 87.7 | 35.2 | – | 21.6 | – | – |
| AAUGAGGGAGGAUAUACAUUCGGCUGUCAACAGCCCUUGGGACAUGAGGAUCACCCAUGUAGAAGGCCCGAUUA [EX2 B.20] (Eterna round: R97, puzzle: Exclusion 2) | 365 | 38.7 | – | – | – | – |
| AUAAAGAACUCAGGAUAUUAGAGAAACGGACAUGAGGAUCACCCAUGUGCGCCUGAUGCCGAGAAUAAGAAGGGAGAAUAGAAA [Rearbi] (Eterna round: R96, puzzle: Exclusion NG 2) | 131 | 27.4 | – | 16.7 | – | – |
| UUUGUUGUUGUGAGGAUAUCGUUGAUUUUUUGAAACGAGAAGGCACAUGAGGAUCACCCAUGUUUGUUGUUGGU [JR_BMOE4_Sub058] (puzzle: Brourd's mod of Exclusion 4) | – | – | 58.8 | – | – | – |
| AAACAAUCCCGAGGAUAUCGGCUAUUAGCAUGCCGAGAAGGCGGCGCGCAUCGACAUGAGGAUCACCCAUGUGUCCGCUCGGUU [Eternabot solution 31] (Eterna round: R96, puzzle: Exclusion NG 1) | 20.8 | 21.6 | – | 13.6 | – | – |
